Experimental data: patent US20090269346A1 (RAPTOR PHARMACEUTICAL, published 2009)

Columns and labels:
LRP2 CR89 Y1042W = biological target: T1, LRP2 CR89 Y1042W (human, UniProt P98164 1022-1105); experiment: solid-phase assay, coated CR protein, anti-RAP, OD450
T1 construct: also called WVWR
T1 chain: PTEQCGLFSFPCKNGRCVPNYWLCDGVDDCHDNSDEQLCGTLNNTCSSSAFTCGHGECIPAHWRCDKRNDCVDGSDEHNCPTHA
Experimental: (§1) Solid phase binding assays-Purified, refolded CR protein (1 μg) was bound to Nunc Maxisorp™ 96-well plates in TBS pH 8 supplemented with 5 mM CaCl₂ (TBSC) overnight at 4° C. Wells were washed with TBSC and then blocked with TBSC containing 2% bovine serum albumin (BSA). RAP ligands were then incubated with the immobilized receptor at a range of concentrations for 2 hours in the above blocking buffer supplemented with 0.05% Tween-20 at room temperature. Control wells contained no added ligand. As an additional control, to determine whether the absence of calcium affected binding, 10 mM EGTA was included in the incubation medium for some samples. Wells were washed with TBSTC and bound ligands detected with polyclonal anti-RAP (BP41/42, 1:1,000, BioMarin). Excess primary antibody was removed and wells washed before incubation with the secondary antibody, HRP-conjugated goat anti rabbit IgG (Bio-Rad). After washing, TMB substrate solutions (Bio-Rad) were added to detect HRP. Color development was stopped with 1N HCl. Absorption at 450 nm was measured with a microplate spectrophotometer (Molecular Devices). Data were plotted and Kd values derived by non-linear regression with the assumption of single-site binding (GraphPad Prism).
(§2) One premise of this work was that amino acids at A, C, A′ and C′ within the calcium-binding loops of a CR pair were key determinants of binding affinity for RAP and would be similarly important for binding of RAP variants. To test this idea, we prepared mutants of LRP2 CR89 in which the native, non-canonical residues at these positions were sequentially substituted with the non-native, canonical residues. As defined above, the A, C, A′, C′ string for LRP2 CR89 is YVWR. Mutants included LRP2 CR89 Y1042W (WVWR), LRP2 CR89 V1047D (YDWR), LRP2 CR89 R1088D (YVWD), LRP2 CR89 V1047D R1088D (YDWD), LRP2 CR89 Y1042W V1047D R1088D (WDWD), LRP2 CR89 Y1042W V1047D (WDWR), LRP2 CR89 Y1042W R1088D (WVWD). Binding to both RAP d3 and RAPv2A d3 were measured for each LRP2 CR89 mutant by solid-phase assay. Samples were tested in triplicate. OD values from uncoated wells, receptor-coated wells incubated with buffer alone, and uncoated wells incubated with the highest ligand concentration all gave similar values for all conditions tested.

[1] = biological target: T2, LRP2 CR89 Y1042W V1047D R1088D (human, UniProt P98164 1022-1105); experiment: as above
T2 construct: also called WDWD
T2 chain: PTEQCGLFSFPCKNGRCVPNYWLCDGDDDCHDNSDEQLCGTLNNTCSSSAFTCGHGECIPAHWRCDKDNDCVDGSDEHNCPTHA
Experimental: as §1, §2

LRP2 CR89 V1047D = biological target: T3, LRP2 CR89 V1047D (human, UniProt P98164 1022-1105); experiment: as above
T3 construct: also called YDWR
T3 chain: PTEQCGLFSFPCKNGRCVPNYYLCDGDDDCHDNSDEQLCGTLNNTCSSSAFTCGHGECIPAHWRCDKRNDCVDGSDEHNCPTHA
Experimental: as §1, §2

LRP2 CR89 Y1042W R1088D = biological target: T4, LRP2 CR89 Y1042W R1088D (human, UniProt P98164 1022-1105); experiment: as above
T4 construct: also called WVWD
T4 chain: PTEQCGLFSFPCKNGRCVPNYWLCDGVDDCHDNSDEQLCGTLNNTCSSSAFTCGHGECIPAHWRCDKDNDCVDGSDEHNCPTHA
Experimental: as §1, §2

LRP2 CR89 R1088D = biological target: T5, LRP2 CR89 R1088D (human, UniProt P98164 1022-1105); experiment: as above
T5 construct: also called YVWD
Experimental: as §1, §2

LRP2 CR89 = biological target: T6, LRP2 CR89 (human, UniProt P98164 1025-1102); experiment: as above
T6 construct: domain: CR8 and CR9; also called YVWR; L2 CR89; not shown: N-terminal hexahistidine and S-peptide from pET30(+)a
T6 sequence (P98164 1025-1102): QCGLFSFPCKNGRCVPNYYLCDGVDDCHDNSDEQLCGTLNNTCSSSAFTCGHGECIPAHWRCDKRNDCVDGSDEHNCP
Experimental: as §1, §2

LRP2 CR89 V1047D R1088D = biological target: T7, LRP2 CR89 V1047D R1088D (human, UniProt P98164 1022-1105); experiment: as above
T7 construct: also called YDWD
T7 chain: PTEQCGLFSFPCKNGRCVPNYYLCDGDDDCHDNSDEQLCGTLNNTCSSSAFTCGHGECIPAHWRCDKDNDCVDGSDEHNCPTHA
Experimental: as §1, §2

LRP2 CR3031 = biological target: T8, LRP2 CR3031 (UniProt P98164 3677-3755); experiment: solid-phase binding assay, ligand at 80 nM on coated CR proteins, blank-corrected absorbance
T8 construct: domain: CR30 and CR31; its making is not described
T8 sequence (P98164 3677-3755): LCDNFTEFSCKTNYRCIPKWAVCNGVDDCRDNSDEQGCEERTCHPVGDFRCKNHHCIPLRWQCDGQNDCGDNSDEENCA
Experimental: as §1
(§3) Binding experiments were also carried out comparing the binding of RAP d3 and RAPv2A d3 to an array of CR pairs (FIG. 9), similar to the experiment depicted in FIG. 5. For these experiments, RAP d3 and RAPv2A d3 (or RAPv2 d3) were each incubated at 80 nM concentrations with LRP1 CR3-5, LRP6 CR12, LRP6 CR23, LRP6 CR1-3, LRP2 CR89, LRP2 CR2728, LRP2 CR3031, LRP2 CR3435, LRP2 CR34-36, VLDLR CR78, VLDLR CR6-8, MAT CR12, MAT CR23 and MAT CR34. Samples were tested twice, in duplicate, and values combined. Means and standard deviations were then calculated. Blank values obtained from wells incubated in the absence of ligand were used to correct absorbance data.

LRP2 CR2728 = biological target: T9, LRP2 CR2728 (UniProt P98164 3552-3631); experiment: as above
T9 construct: domain: CR27 and CR28; its making is not described
T9 sequence (looked up): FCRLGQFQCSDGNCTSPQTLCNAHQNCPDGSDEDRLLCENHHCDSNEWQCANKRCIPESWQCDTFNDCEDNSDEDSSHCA
Experimental: as §1, §3

ST14 CR12 = biological target: T10, ST14 CR12 (human, UniProt Q9Y5Y6 452-524); experiment: as above
T10 construct: also called MAT CR12; Mat CR12
T10 sequence: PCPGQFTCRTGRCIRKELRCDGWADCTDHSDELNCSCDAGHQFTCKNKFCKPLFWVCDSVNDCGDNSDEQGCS
Experimental: as §1, §3

B1: wild-type RAP d3 (ligand)
chain: LDRLRRVSHQGYSTEAEFEEPRVIDLWDLEQSANLTDKELEAFREELKHFEAKIEKHNHYQKQLEIAHEKLRHAESVGDGERVSRSREKHALLEGRTKELGYTVKKHLQDLSGRISRAR
notes: expressed in E. coli from pET30(+)a; not shown: vector-encoded N-terminal tags of pET30(+)a (hexahistidine and S-peptide, as stated for the CR constructs)
With B1 the “% max bind” value (LRP2 CR89 Y1042W) was 9%, the “% max bind” value [1] was 15% and the “% max bind” value (LRP2 CR89 V1047D) was 6%. The “% max bind” value (LRP2 CR89 Y1042W R1088D) was 16%, the “% max bind” value (LRP2 CR89 R1088D) was 7% and the “% max bind” value (LRP2 CR89) was 7%. For the same binder, the “% max bind” value (LRP2 CR89 V1047D R1088D) was 6%, the binding result (LRP2 CR3031) was “no binding (tested: 80 nM)” and the binding result (LRP2 CR2728) was “no binding (tested: 80 nM)”. B1: no binding (tested: 80 nM) (ST14 CR12).
